Earlier results on 2 substances are cited in paper PMC4017372.

For series [1], the target named is HypB (Helicobacter pylori) (UniProt O25560).
Series [2] concerns the target UreE (Helicobacter pylori) (UniProt B5Z672). The series is described as follows: ITC. Background: ITC needs no label: the signal is the heat of the interaction.
UniProt B5Z672, sequence (B5Z672 whole entry): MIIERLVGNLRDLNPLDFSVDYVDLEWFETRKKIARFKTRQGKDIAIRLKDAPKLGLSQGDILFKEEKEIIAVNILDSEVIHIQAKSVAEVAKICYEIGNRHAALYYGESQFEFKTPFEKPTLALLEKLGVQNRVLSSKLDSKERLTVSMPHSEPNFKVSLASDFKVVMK

UniProt O25560, sequence (O25560 whole entry): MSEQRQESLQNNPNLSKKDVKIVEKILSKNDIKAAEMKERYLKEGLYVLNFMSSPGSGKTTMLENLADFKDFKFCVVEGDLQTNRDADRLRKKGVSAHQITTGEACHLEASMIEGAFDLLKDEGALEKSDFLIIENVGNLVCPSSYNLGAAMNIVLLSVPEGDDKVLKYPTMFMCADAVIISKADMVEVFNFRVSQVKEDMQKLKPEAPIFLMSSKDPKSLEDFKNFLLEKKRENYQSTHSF

For orientation: Kd means the constant that tells how readily two partners part at equilibrium. For the substance HypA (from UniProt P0A0U5), the Kd in series [1] is 52 µM. For UreG (from UniProt B6JPH1), the Kd in series [2] is 4 µM.
